Target: rat growth hormone releasing hormone receptor (rat) (UniProt Q02644)
Test: radioligand competition binding of radioiodinated JV-1-42 to membrane fractions of ischemic rat heart

Chain of UniProt Q02644 (Q02644 23-464): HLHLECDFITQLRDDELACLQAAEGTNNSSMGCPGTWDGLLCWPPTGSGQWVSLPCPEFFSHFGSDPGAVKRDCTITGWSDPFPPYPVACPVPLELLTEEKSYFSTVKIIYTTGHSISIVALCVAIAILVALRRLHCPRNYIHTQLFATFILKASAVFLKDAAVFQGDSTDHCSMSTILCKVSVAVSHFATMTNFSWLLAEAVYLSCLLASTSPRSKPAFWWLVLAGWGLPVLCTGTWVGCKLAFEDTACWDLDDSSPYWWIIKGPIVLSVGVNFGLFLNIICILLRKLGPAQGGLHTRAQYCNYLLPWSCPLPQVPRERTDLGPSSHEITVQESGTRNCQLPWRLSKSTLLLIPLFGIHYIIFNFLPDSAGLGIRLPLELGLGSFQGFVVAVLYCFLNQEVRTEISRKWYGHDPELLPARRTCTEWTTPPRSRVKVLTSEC

Bmax (fmol/mg protein): 51.3
Kd: 0.86 nM
Substance: GHRH antagonist JV-1-42 (radioiodinated) (peptide)

From patent US20140057847A1
